Where two headings read alike, the source gives them in different places. Ends that are not written are not given here.
What was measured:
[1] = target: Tar4E L378C, E. coli aspartate chemoreceptor Tar, all-glutamyl form with carboxyl-terminal pentapeptide, homodimer in Nanodiscs (E. coli) (UniProt P07017); assay: BLI; BLItz; biotinylated Tar homodimers in Nanodiscs held on an avidin sensor tip, CheB-P* or CheB-P*-I in solution; 50 mM Tris-HCl pH 7.5, 10% glycerol, 5 mM MgCl2, 50 mM KCl, 2% BSA, no DTT; global fit, apparent rate constants, KD calculated from kon and koff
[2] = target: Tar4EΔpp-6H L378C, E. coli Tar lacking the carboxyl-terminal pentapeptide, all-glutamyl form, homodimer in Nanodiscs (E. coli) (UniProt P07017); assay: as above
[3] = target: Tar4Q L378C, E. coli aspartate chemoreceptor Tar, all-glutaminyl form with carboxyl-terminal pentapeptide, homodimer in Nanodiscs (E. coli) (UniProt P07017); assay: as above
[4] = target: Tar4QΔpp-6H L378C, E. coli Tar lacking the carboxyl-terminal pentapeptide, all-glutaminyl form, homodimer in Nanodiscs (E. coli) (UniProt P07017); assay: as above
CheB [5] = assay: Binding of CheB to NWETF pentapeptide tethered to the sensor surface via a linker (biolayer interferometry); set-up: species or system E. coli; conditions: BLI, low-activity, unphosphorylated CheB, read-out: Equilibrium dissociation constant, pentapeptide alone
Experimental: (§1) We measured binding of the low-activity, unphosphorylated form of CheB to the NWETF pentapeptide tethered to the sensor surface via a linker or in its native position at the carboxyl terminus of Tar4E or Tar4Q ([23]). Equilibrium dissociation constants were essentially the same for all conditions, 190 ± 85 μM for pentapeptide alone, and 230 ± 70 and 160 ± 30 for the pentapeptide on Tar4E or Tar4Q, respectively (Table 1).
Kinetics of CheB association and dissociation with Nanodisc-embedded Tar biotinylated at L378C were determined using biolayer interferometry ([22], [23]) as measured by a BLItz instrument (ForteBio, Menlo Park, CA, USA) and described in reference. Representative time course experiments are shown in Fig. S1 in the supplemental material. Measurements for CheB-P* and CheB-P*-I were in 50 mM Tris-HCl (pH 7.5), 10% (wt/vol) glycerol, 5 mM MgCl2, 50 mM KCl, and 2% (wt/vol) bovine serum albumin (BSA). Measurements for CheB and CheBc were in the same solution plus 2 mM dithiothreitol (DTT).
Using BLItz software, response curves were fit globally to a 1:1 binding model to yield apparent association rate constants (kon) and dissociation rate constants (koff). […]

unphosphorylated CheB [6] = conditions: isothermal titration calorimetry, free pentapeptide, ref [21], read-out: equilibrium dissociation constant; cited from earlier work
Experimental: as §1, with “1). Within the error of the measurements, these values corresponded to those previously determined for free pentapeptide binding to unphosphorylated CheB by isothermal titration c ...” for “1).”

unphosphorylated CheB [7] = conditions: equilibrium dialysis, free pentapeptide, ref [21], read-out: equilibrium dissociation constant; cited from earlier work
CheB [8] = conditions: low-activity, unphosphorylated CheB from E. coli; ref [21]; read-out: dissociation constants; cited from earlier work
Text: (§2) CheB is a two-domain protein, with an amino-terminal response regulator domain attached by a linker sequence to a carboxyl-terminal catalytic domain ([17]) (Fig. 1B). Phosphorylation of the response regulator domain by the chemotaxis histidine kinase creates a high-activity form of the methylesterase ([6]), shifting interaction between the two domains to an “open” conformation that relieves occlusion of the active site by the regulatory amino-terminal domain ([18], [19]). The enzyme binds its substrate chemoreceptor side chains with the surfaces surrounding its active site ([20]). In contrast, ...

CheB [9] = conditions: position 132; ref [11]; cited from earlier work
[10] = system: CheB binding to pentapeptide; set-up: method as in PMID 11435446; conditions: ref [11]; cited from earlier work
[11] = target: T1, methylesterase/deamidase CheB from E. coli, low-activity, unphosphorylated form (E. coli, UniProt P07330 1-349); assay: BLI; BLItz; NWETF pentapeptide tethered to the sensor surface via a linker, CheB in solution; apparent rate constants, KD calculated from kon and koff; conditions: both partners purified
T1 construct: CheB methylesterase/deamidase of E. coli, unphosphorylated, from plasmid pCW/cheB; measured with 2 mM DTT in the buffer; also called low-activity CheB; unmodified CheB; source: E. coli K-12 RP3098 with pCW/cheB, purified
T1 sequence (looked up): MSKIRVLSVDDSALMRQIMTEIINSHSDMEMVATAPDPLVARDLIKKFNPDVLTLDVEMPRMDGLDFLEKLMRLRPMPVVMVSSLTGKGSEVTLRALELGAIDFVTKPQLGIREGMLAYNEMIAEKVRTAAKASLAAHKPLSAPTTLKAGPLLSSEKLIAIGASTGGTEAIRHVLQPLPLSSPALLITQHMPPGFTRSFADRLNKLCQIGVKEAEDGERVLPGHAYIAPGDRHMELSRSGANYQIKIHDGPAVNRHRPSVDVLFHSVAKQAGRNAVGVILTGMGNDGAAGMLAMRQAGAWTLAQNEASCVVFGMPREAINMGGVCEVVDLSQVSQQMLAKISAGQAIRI

[12] = low-activity, unphosphorylated CheB; ref [16]; read-out: dissociation constant; cited from earlier work
Text: as §2

## CheB-P*, phosphorylation mimic of Salmonella CheB D56C/C207S/C309S modified with thiophosphate (from UniProt P04042 1-349) (enzyme)
[1]
  Kd: 13 µM
  dwell time (1/koff): 3 s
[2]
  Kd: 200 µM
[3]
  Kd: 13 µM
  dwell time (1/koff): 3 s
[4]
  Kd: 200 µM

## NWETF [NWETF]
CheB [5]
  Kd: 190 ± 85 µM
Unphosphorylated CheB [6]
  Kd: 160 µM
Unphosphorylated CheB [7]
  Kd: 130 µM
CheB [8]
  Kd: 130 to 160 µM
CheB [9]
  protection of intact CheB from limited proteolysis: protected intact CheB from limited proteolysis at position 132

## peptide from CheB residues 130 through 140 (AAKASLAAHKP; UniProt P07330 130-140, looked up, fragment)
[10]
  reduction of binding of intact enzyme to pentapeptide: reduced binding of intact enzyme to pentapeptide

## CheB-P*-I, enzymatically inactive phosphorylation mimic, Salmonella CheB D56C/S164A/C207S/C309S modified with thiophosphate (from UniProt P04042 1-349) (enzyme)
[1]
  fold reduction of KA against CheB-P*: 2.5 fold
[3]
  fold reduction of KA against CheB-P*: 2.5 fold

B1: NWETF pentapeptide tethered to the sensor surface via a linker (peptide)
peptide: NWETF
modifications: also: tethered to sensor surface via a linker (not described)
notes: carboxyl-terminal pentapeptide of the E. coli chemoreceptor Tar; also called pentapeptide alone
[11]
  Kd: 190 µM

B2: CheB from Pseudomonas aeruginosa (protein, UniProt O87125 1-368, looked up)
Protein-glutamate …: MAVKVLVVDDSGFFRRRVSEILSADGQIQVVGTGTNGREAIEQALALRPDVITMDYEMPLMDGITAVRNIMQRCPTPVLMFSSLTHEGARVTLDALDAGAVDYLPKNFEDISRNPDKVRQLLCEKVLTIARSNRRSISLPPLPSATSSSHAPASSSSVGASARVGAGASPAPASTSAAPKRKAYRLVAIGTSTGGPVALQRVLTQLPANFPAPLVLIQHMPAAFTKAFAERLDKLCRINVKEAEDGDILRPGLALLAPGGKQMMVDGRGTVRILPGDERLNYKPCVDVTFGSAAKAYNDKVLAVVLTGMGADGREGARLLKQGGSQVWAQDEASCVIYGMPMAVVKANLADAVYGLDDIGRHLVEACQ
[12]
  Kd: ~90 µM

Source: PMC8609364, “A Selective Tether Recruits Activated Response Regulator CheB to Its Chemoreceptor Substrate” (mBio, 2021)
